Source: patent US20250066745A1, “MUTANTS AND USE THEREOF” (BGI SHENZHEN, priority 2021, published 2025)

Tests used:
[1] = Luminescence activity assay of purified Gaussia luciferase mutants on coelenterazine derivative ZS2; format: biochemical; design: key to Activity of mutant relative to wild-type Gaussia luciferase without the signal peptide: ratio of mutant luminescence intensity to wild-type Gaussia luciferase; conditions: Substrate ZS2 (Table 16)
Description: (§1) In this Example, the protein concentration was determined with a BCA quantitative kit (Thermo Scientific™ Pierce™ BCA Protein Assay Kit) accurately. The purified luciferase obtained in Example 5 was diluted with diluent (50 mM Tris-HCl, pH 8.0, 100 mM NaCl, 0.1% (v/v) Tween-20) to 1 μg/mL. The diluted luciferase, taken for 10 μL, was moved into a black 96-well plate, then added with 90 μL of the substrates coelenterazine, fluoro-coelenterazine or coelenterazine derivative ZS2 (purchased from Biolab) which was diluted into 100 μM with the same diluent, and the luminescence intensity of the plate was read with a self-luminescence module of a microplate reader. The mutation site of the mutant, the measured luminescence intensity, the ratio of luminescence intensities of the advantageous mutants to the wild-type Gaussia luciferase without the signal peptide having the sequence shown in SEQ ID NO: 3 are shown in Table 15. The results of catalytic activity assay of the advantageous mutants relative to the wild-type Gaussia luciferase without the signal peptide having the sequence shown in SEQ ID NO: 3 on substrate coelenterazine are shown in FIG. 6. […] The results of catalytic activity assay of the advantageous mutants relative to the wild-type Gaussia luciferase without the signal peptide having the sequence shown in SEQ ID NO: 3 on substrate fluoro-coelenterazine are shown in FIG. 7.
(§2) The new mutant library constructed in Example 7 was screened and tested for substrate specificity. Expression and purification schemes were the same as that in Example 5, and the activity assay scheme was the same as that in Example 6. The respective catalytic activities of combinatorial mutants on coelenterazine, fluoro-coelenterazine or coelenterazine derivative ZS2, and coelenterazine derivative ZS26 (purchased from BIOLAB) were assayed, and comparisons among the substrate specificities of the combinatorial mutants were based on the ratios of catalytic activities on two corresponding substrates.

[2] = Luminescence activity assay of purified Gaussia luciferase mutants on coelenterazine; format: biochemical; design: key to Activity of mutant relative to wild-type Gaussia luciferase without the signal peptide: ratio of mutant luminescence intensity to wild-type Gaussia luciferase; conditions: Substrate CTZ (Table 16)
Description: as §1, §2

B1: T96P Q163D T167S G174N K178S A182Y G183A: Gaussia luciferase mutant (protein)
chain: MGVKVLFALICIAVAEAKPTENNEDFNIVAVASNFATTDLDADRGKLPGKKLPLEVLKEMEANARKAGCTRGCLICLSHIKCTPKMKKFIPGRCHPYEGDKESAQGGIGEAIVDIPEIPGFKDLEPMEQFIAQVDLCVDCTTGCLKGLANVQCSDLLKKWLPDRCASFASKIQNQVDSIKGYAGD
modifications: SIGNAL (1)..(17)
notes: Gaussia luciferase mutant
For B1, which “Activity of mutant relative to wild-type Gaussia luciferase without the signal peptide” value [1] is on record?
Its value is 0.273.

And the “Activity of mutant relative to wild-type Gaussia luciferase without the signal peptide” value [2]?
Its value is 0.007.

B2: V29A A30D V31I A32V S33N L40A: Gaussia luciferase mutant (protein)
chain: MGVKVLFALICIAVAEAKPTENNEDFNIADIVNNFATTDADADRGKLPGKKLPLEVLKEMEANARKAGCTRGCLICLSHIKCTPKMKKFIPGRCHTYEGDKESAQGGIGEAIVDIPEIPGFKDLEPMEQFIAQVDLCVDCTTGCLKGLANVQCSDLLKKWLPQRCATFASKIQGQVDKIKGAGGD
modifications: SIGNAL (1)..(17)
notes: Gaussia luciferase mutant
What does the source list for B2?
Activity of mutant relative to wild-type Gaussia luciferase without the signal peptide [1]: 1.164; Activity of mutant relative to wild-type Gaussia luciferase without the signal peptide [2]: 1.046

B3: V29L A30G A32V S33G A36N T37A L40S: Gaussia luciferase mutant (protein)
chain: MGVKVLFALICIAVAEAKPTENNEDFNILGVVGNFNATDSDADRGKLPGKKLPLEVLKEMEANARKAGCTRGCLICLSHIKCTPKMKKFIPGRCHTYEGDKESAQGGIGEAIVDIPEIPGFKDLEPMEQFIAQVDLCVDCTTGCLKGLANVQCSDLLKKWLPQRCATFASKIQGQVDKIKGAGGD
modifications: SIGNAL (1)..(17)
notes: Gaussia luciferase mutant
What does the source list for B3?
Activity of mutant relative to wild-type Gaussia luciferase without the signal peptide [1]: 1.976; Activity of mutant relative to wild-type Gaussia luciferase without the signal peptide [2]: 0.764

B4: V29S A30G V31I A32V S33G A36D T37A: Gaussia luciferase mutant (protein)
chain: MGVKVLFALICIAVAEAKPTENNEDFNISGIVGNFDATDLDADRGKLPGKKLPLEVLKEMEANARKAGCTRGCLICLSHIKCTPKMKKFIPGRCHTYEGDKESAQGGIGEAIVDIPEIPGFKDLEPMEQFIAQVDLCVDCTTGCLKGLANVQCSDLLKKWLPQRCATFASKIQGQVDKIKGAGGD
modifications: SIGNAL (1)..(17)
notes: Gaussia luciferase mutant
What does the source list for B4?
Activity of mutant relative to wild-type Gaussia luciferase without the signal peptide [1]: 0.142; Activity of mutant relative to wild-type Gaussia luciferase without the signal peptide [2]: 0.000

B5: E102K S103T E110A: Gaussia luciferase mutant (protein)
chain: MGVKVLFALICIAVAEAKPTENNEDFNIVAVASNFATTDLDADRGKLPGKKLPLEVLKEMEANARKAGCTRGCLICLSHIKCTPKMKKFIPGRCHTYEGDKKTAQGGIGAAIVDIPEIPGFKDLEPMEQFIAQVDLCVDCTTGCLKGLANVQCSDLLKKWLPQRCATFASKIQGQVDKIKGAGGD
modifications: SIGNAL (1)..(17)
notes: Gaussia luciferase mutant
With B5 as the molecule, how does the “Activity of mutant relative to wild-type Gaussia luciferase without the signal peptide” value [1] read?
Its value is 1.504.

What about the “Activity of mutant relative to wild-type Gaussia luciferase without the signal peptide” value [2] of the same molecule?
Its value is 0.864.

B6: F26A N27D V29R A30G A32E S33G A36P L40A: Gaussia luciferase mutant (protein)
chain: MGVKVLFALICIAVAEAKPTENNEDADIRGVEGNFPTTDADADRGKLPGKKLPLEVLKEMEANARKAGCTRGCLICLSHIKCTPKMKKFIPGRCHTYEGDKESAQGGIGEAIVDIPEIPGFKDLEPMEQFIAQVDLCVDCTTGCLKGLANVQCSDLLKKWLPQRCATFASKIQGQVDKIKGAGGD
modifications: SIGNAL (1)..(17)
notes: Gaussia luciferase mutant
With B6 as the molecule, how does the “Activity of mutant relative to wild-type Gaussia luciferase without the signal peptide” value [1] read?
Its value is 0.684.

And the “Activity of mutant relative to wild-type Gaussia luciferase without the signal peptide” value [2]?
The value was 0.034.

B7: F26C V29L A30D V31L A32V S33G L40I: Gaussia luciferase mutant (protein)
chain: MGVKVLFALICIAVAEAKPTENNEDCNILDLVGNFATTDIDADRGKLPGKKLPLEVLKEMEANARKAGCTRGCLICLSHIKCTPKMKKFIPGRCHTYEGDKESAQGGIGEAIVDIPEIPGFKDLEPMEQFIAQVDLCVDCTTGCLKGLANVQCSDLLKKWLPQRCATFASKIQGQVDKIKGAGGD
modifications: SIGNAL (1)..(17)
notes: Gaussia luciferase mutant
Which “Activity of mutant relative to wild-type Gaussia luciferase without the signal peptide” value [1] does the source give for B7 here?
Its value is 0.312.

What about the “Activity of mutant relative to wild-type Gaussia luciferase without the signal peptide” value [2] of the same molecule?
Its value is 0.000.

B8: F26C V29Y S33G A36I T37E L40T: Gaussia luciferase mutant (protein)
chain: MGVKVLFALICIAVAEAKPTENNEDCNIYAVAGNFIETDTDADRGKLPGKKLPLEVLKEMEANARKAGCTRGCLICLSHIKCTPKMKKFIPGRCHTYEGDKESAQGGIGEAIVDIPEIPGFKDLEPMEQFIAQVDLCVDCTTGCLKGLANVQCSDLLKKWLPQRCATFASKIQGQVDKIKGAGGD
modifications: SIGNAL (1)..(17)
notes: Gaussia luciferase mutant
For B8, which “Activity of mutant relative to wild-type Gaussia luciferase without the signal peptide” value [1] is on record?
The value was 1.131.

And the “Activity of mutant relative to wild-type Gaussia luciferase without the signal peptide” value [2]?
Its value is 0.016.

B9: F26D N27D V290 A30D V31I S33R T37L: Gaussia luciferase mutant (protein)
chain: MGVKVLFALICIAVAEAKPTENNEDDDIVDIARNFALTDLDADRGKLPGKKLPLEVLKEMEANARKAGCTRGCLICLSHIKCTPKMKKFIPGRCHTYEGDKESAQGGIGEAIVDIPEIPGFKDLEPMEQFIAQVDLCVDCTTGCLKGLANVQCSDLLKKWLPQRCATFASKIQGQVDKIKGAGGD
With B9 as the molecule, how does the “Activity of mutant relative to wild-type Gaussia luciferase without the signal peptide” value [1] read?
Its value is 0.213.

What about the “Activity of mutant relative to wild-type Gaussia luciferase without the signal peptide” value [2] of the same molecule?
Its value is 1.110.

B10: F26D N27H V29K A30G A32G S33L T37L L40R: Gaussia luciferase mutant (protein)
chain: MGVKVLFALICIAVAEAKPTENNEDDHIKGVGLNFALTDRDADRGKLPGKKLPLEVLKEMEANARKAGCTRGCLICLSHIKCTPKMKKFIPGRCHTYEGDKESAQGGIGEAIVDIPEIPGFKDLEPMEQFIAQVDLCVDCTTGCLKGLANVQCSDLLKKWLPQRCATFASKIQGQVDKIKGAGGD
modifications: SIGNAL (1)..(17)
notes: Gaussia luciferase mutant
Which “Activity of mutant relative to wild-type Gaussia luciferase without the signal peptide” value [1] does the source give for B10 here?
Its value is 0.381.

And the “Activity of mutant relative to wild-type Gaussia luciferase without the signal peptide” value [2]?
The value was 0.037.

B11: F26G N27Y A30D V31L A32V S33R A36M T37E L40G: Gaussia luciferase mutant (protein)
chain: MGVKVLFALICIAVAEAKPTENNEDGYIVDLVRNFMETDGDADRGKLPGKKLPLEVLKEMEANARKAGCTRGCLICLSHIKCTPKMKKFIPGRCHTYEGDKESAQGGIGEAIVDIPEIPGFKDLEPMEQFIAQVDLCVDCTTGCLKGLANVQCSDLLKKWLPQRCATFASKIQGQVDKIKGAGGD
modifications: SIGNAL (1)..(17)
notes: Gaussia luciferase mutant
Which results are given for B11?
Activity of mutant relative to wild-type Gaussia luciferase without the signal peptide [1]: 1.203; Activity of mutant relative to wild-type Gaussia luciferase without the signal peptide [2]: 0.003

B12: F26I V29F A30G A32E S33D A36N T37D L40T: Gaussia luciferase mutant (protein)
chain: MGVKVLFALICIAVAEAKPTENNEDINIFGVEDNFNDTDTDADRGKLPGKKLPLEVLKEMEANARKAGCTRGCLICLSHIKCTPKMKKFIPGRCHTYEGDKESAQGGIGEAIVDIPEIPGFKDLEPMEQFIAQVDLCVDCTTGCLKGLANVQCSDLLKKWLPQRCATFASKIQGQVDKIKGAGGD
modifications: SIGNAL (1)..(17)
notes: Gaussia luciferase mutant
With B12 as the molecule, how does the “Activity of mutant relative to wild-type Gaussia luciferase without the signal peptide” value [1] read?
The value was 0.000.

What about the “Activity of mutant relative to wild-type Gaussia luciferase without the signal peptide” value [2] of the same molecule?
Its value is 1.120.

B13: F26I A30D A32V S33G A36D T37K L40V: Gaussia luciferase mutant (protein)
chain: MGVKVLFALICIAVAEAKPTENNEDINIVDVVGNFDKTDVDADRGKLPGKKLPLEVLKEMEANARKAGCTRGCLICLSHIKCTPKMKKFIPGRCHTYEGDKESAQGGIGEAIVDIPEIPGFKDLEPMEQFIAQVDLCVDCTTGCLKGLANVQCSDLLKKWLPQRCATFASKIQGQVDKIKGAGGD
modifications: SIGNAL (1)..(17)
notes: Gaussia luciferase mutant
With B13 as the molecule, how does the “Activity of mutant relative to wild-type Gaussia luciferase without the signal peptide” value [1] read?
Its value is 2.392.

What about the “Activity of mutant relative to wild-type Gaussia luciferase without the signal peptide” value [2] of the same molecule?
The value was 0.636.

B14: F26I N27D V29D A30G A32E S33G A36T L40S del117-119 D139H: Gaussia luciferase mutant (protein)
chain: MGVKVLFALICIAVAEAKPTENNEDIDIDGVEGNFTTTDSDADRGKLPGKKLPLEVLKEMEANARKAGCTRGCLICLSHIKCTPKMKKFIPGRCHTYEGDKESAQGGIGEAIVDIPGFKDLEPMEQFIAQVDLCVHCTTGCLKGLANVQCSDLLKKWLPQRCATFASKIQGQVDKIKGAGGD
modifications: SIGNAL (1)..(17)
notes: Gaussia luciferase mutant
For B14, which “Activity of mutant relative to wild-type Gaussia luciferase without the signal peptide” value [1] is on record?
Its value is 0.010.

And the “Activity of mutant relative to wild-type Gaussia luciferase without the signal peptide” value [2]?
The value was 0.043.
